Results on 94 variants are retold here after the supplement of paper PMC10567573.

To fix the notation:
B1: RHOBTB3 (parent)
chain: QLQSMPSRELASMNLDIVDLLKKA
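Also: lentivirally expressed fusions sorted by FACS into six bins by GFP to DsRed ratio, PSI derived from sequencing read proportions per bin multiplied by bin number.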

In this series the parent is B1. The series is described as follows: protein stability index of a GFP-peptide fusion (GPS, HEK-293T) (PSI 1-6); higher = more stable. As to conditions: c terminus: a fixed tail appended.
With QLQMMPSRELASMNLDIVDLLKKA [S4M], the protein stability index amounted to 3.28. The figure for QLQLMPSRELASMNLDIVDLLKKA [S4L] is 3.23; for QLQPMPSRELASMNLDIVDLLKKA [S4P] it is 3.54. As to QLQIMPSRELASMNLDIVDLLKKA [S4I], the protein stability index stood at 3.78. Under QLQRMPSRELASMNLDIVDLLKKA [S4R] stands 3.06. Turning to QLQNMPSRELASMNLDIVDLLKKA [S4N], the protein stability index was 2.78.

QLQEMPSRELASMNLDIVDLLKKA [S4E]: the protein stability index is 4.83. The figure for QLQAMPSRELASMNLDIVDLLKKA [S4A] is 3; for QLQSMPSSELASMNLDIVDLLKKA [R8S] it is 3.99. Under QLQSMPSAELASMNLDIVDLLKKA [R8A] stands 4.22; under QLQSMPSDELASMNLDIVDLLKKA [R8D], 4.11; under QLQSMPSCELASMNLDIVDLLKKA [R8C], 3.85. For the variant QLQSMPSKELASMNLDIVDLLKKA [R8K], the protein stability index came to 3.38. For QLQSMPSYELASMNLDIVDLLKKA [R8Y], the protein stability index is 2.66. Under QLQSMPSHELASMNLDIVDLLKKA [R8H] stands 3.94. Turning to QLQSMPSRELASMNLDIVDLGKKA [L21G], the protein stability index was determined as 3.91. For the variant QLQSMPSRELASMNLDIVDLTKKA [L21T], the protein stability index is 3.74. The figure for QLQSMPSRELASMNLDIVDLYKKA [L21Y] is 2.96. Regarding QLQSMPSRELASMNLDIVDLQKKA [L21Q], the protein stability index came to 3.87. Take QLQSMPSRELASMNLDIVDLFKKA [L21F]: the protein stability index was determined as 3. The figure for QLQSMPSRELASMNLDIVDLIKKA [L21I] is 3.56; for QLQSMPSRELASMNLDIVDLPKKA [L21P] it is 3.84. Under QLQSMPSRELASMNLDIVDLSKKA [L21S] stands 4.12.

For QLQSMPSRELASMNLDIVDLDKKA [L21D], the protein stability index turned out to be 4.67. Under QLQSMPSREKASMNLDIVDLLKKA [L10K] stands 3.02; under QLQSMPSREMASMNLDIVDLLKKA [L10M], 3.58.

For the variant QLQSMPSREQASMNLDIVDLLKKA [L10Q], the protein stability index was found to be 3.63.

As to QLQSMPSREIASMNLDIVDLLKKA [L10I], the protein stability index turned out to be 2.95.

For QLQSMPSRETASMNLDIVDLLKKA [L10T], the protein stability index was 4.32. The figure for QLQSMPSREPASMNLDIVDLLKKA [L10P] is 3.83; for QLQSMPSRECASMNLDIVDLLKKA [L10C] it is 3.62; for QCQSMPSRELASMNLDIVDLLKKA [L2C] it is 4.45. In the case of QWQSMPSRELASMNLDIVDLLKKA [L2W], the protein stability index turned out to be 3.31.

In the case of QAQSMPSRELASMNLDIVDLLKKA [L2A], the protein stability index turned out to be 3.21. As for QRQSMPSRELASMNLDIVDLLKKA [L2R], the protein stability index came to 3.47. As for QKQSMPSRELASMNLDIVDLLKKA [L2K], the protein stability index is 3.18. Under QYQSMPSRELASMNLDIVDLLKKA [L2Y] stands 4.34. Under QNQSMPSRELASMNLDIVDLLKKA [L2N] stands 3.71; under QLQSMPSRELASMNLDIVDLLKKT [A24T], 3.95; under QLQSMPSRELASMNLDIVDLLKKC [A24C], 3.14. Under QLQSMPSRELASMNLDIVDLLKKV [A24V] stands 3.34; under QLQSMPSRELASMNLDIVDLLKKD [A24D], 4.65.

With QLQSMPSRELASMNLDIVDLLKKN [A24N], the protein stability index turned out to be 4.14. The figure for QLQSMPSRELASMNLDIVDLLKKH [A24H] is 3.77. On to QLYSMPSRELASMNLDIVDLLKKA [Q3Y], for which the protein stability index is 2.75. The figure for QLQSMPSRELAFMNLDIVDLLKKA [S12F] is 3.22; for QLQSMPSRELAAMNLDIVDLLKKA [S12A] it is 3.28. The figure for QLQSMPSRELADMNLDIVDLLKKA [S12D] is 3.68; for QLQSMPSRELAMMNLDIVDLLKKA [S12M] it is 3.24. The figure for QLQSMPSRELAHMNLDIVDLLKKA [S12H] is 3.06; for QLQSMPSRELAEMNLDIVDLLKKA [S12E] it is 4.26.

For QLQSMPSRGLASMNLDIVDLLKKA [E9G], the protein stability index worked out at 2.9. Under QLQSMPSRHLASMNLDIVDLLKKA [E9H] stands 2.99; under QLQSMPSRSLASMNLDIVDLLKKA [E9S], 3.6; under QLQSMPSRILASMNLDIVDLLKKA [E9I], 2.44. Under QLQSMPSRALASMNLDIVDLLKKA [E9A] stands 3.1; under QLQSMPSRVLASMNLDIVDLLKKA [E9V], 3.04.

Take QLQSMPSRMLASMNLDIVDLLKKA [E9M]: the protein stability index worked out at 2.31. With QLQSMPSRQLASMNLDIVDLLKKA [E9Q], the protein stability index turned out to be 2.7.

In the case of QLQSMPSRCLASMNLDIVDLLKKA [E9C], the protein stability index turned out to be 2.7. On to QLQSMPSRTLASMNLDIVDLLKKA [E9T], for which the protein stability index came out at 3.61.

Regarding QLQSMPERELASMNLDIVDLLKKA [S7E], the protein stability index was found to be 3.48. The figure for QLQSMPDRELASMNLDIVDLLKKA [S7D] is 3.9; for QLQSMPCRELASMNLDIVDLLKKA [S7C] it is 2.69. QLQSMPNRELASMNLDIVDLLKKA [S7N]: the protein stability index stood at 2.98. Under QLQSMPIRELASMNLDIVDLLKKA [S7I] stands 2.42; under QLQSMPMRELASMNLDIVDLLKKA [S7M], 2.51.

As to QLQSMPKRELASMNLDIVDLLKKA [S7K], the protein stability index came out at 2.97.

With QLQSMPGRELASMNLDIVDLLKKA [S7G], the protein stability index was found to be 2.66. QLQSMPWRELASMNLDIVDLLKKA [S7W]: the protein stability index is 5. The figure for QLQSMPLRELASMNLDIVDLLKKA [S7L] is 2.56. The figure for QLQSMDSRELASMNLDIVDLLKKA [P6D] is 3.38. Under QLQSMVSRELASMNLDIVDLLKKA [P6V] stands 2.14; under QLQSMCSRELASMNLDIVDLLKKA [P6C], 2.5. With QLQSMKSRELASMNLDIVDLLKKA [P6K], the protein stability index was determined as 3.77. The figure for QLQSMISRELASMNLDIVDLLKKA [P6I] is 2.03. The figure for QLQSMLSRELASMNLDIVDLLKKA [P6L] is 2.2; for QLQSMASRELASMNLDIVDLLKKA [P6A] it is 3.19; for QLQSMFSRELASMNLDIVDLLKKA [P6F] it is 1.93.

For QLQSMPSRELASMNLDIVDLLRKA [K22R], the protein stability index is 3.21. The figure for QLQSMPSRELASMNLDIVDLLFKA [K22F] is 2.29; for QLQSMPSRELASMNLDIVDLLEKA [K22E] it is 4.71; for QLQSMPSRELASMNLDIVDLLWKA [K22W] it is 2.04. The figure for QLQSMPSRELASMNLDIVDLLNKA [K22N] is 4.23. The figure for QLQSMPSRELASMNLDIVDLLPKA [K22P] is 3.57; for QLQSMPSRELASMNLDIVDLLSKA [K22S] it is 3.55. For QLQSMPSRELYSMNLDIVDLLKKA [A11Y], the protein stability index is 2.86. The figure for QLQSMPSRELKSMNLDIVDLLKKA [A11K] is 2.72; for QLQSMPSRELQSMNLDIVDLLKKA [A11Q] it is 3.37; for QLQSMPSRELLSMNLDIVDLLKKA [A11L] it is 3.11. For the variant QLQSMPSRELFSMNLDIVDLLKKA [A11F], the protein stability index was 2.76.

With QLQSMPSRELMSMNLDIVDLLKKA [A11M], the protein stability index turned out to be 3.34. The figure for QLQSMPSRELSSMNLDIVDLLKKA [A11S] is 3.54; for QLQSMPSRELTSMNLDIVDLLKKA [A11T] it is 3.28.
